Assay: soluble fraction after stress (log2 fold change); higher = more stays soluble; pooled small domains, quantitative proteomics
Settings: stress: 50 degC
Method in brief: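 Quantitative proteomics served as the high-throughput read-out for pooled custom libraries of small protein domains. Each was stressed at 50°C. Aggregation propensity is expressed as the base-two log fold change in soluble protein after stress. A higher value means a larger share of the protein remains in solution.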

In order of falling “soluble fraction (log2)” value:
1. HMTGRVKWYDATKGFGFVTSDEGGDVFLPKGALPAGVADLKTGQRIEFGVVDSRKGAQALGVK  0.337
2. HMNTPTLLLYGGKDHSVPEAGIRHLRAHLSANDRGEYRFYPNAPHLLLQSRQWQQVSQDISQWLAMT  0.141
3. HMQIIEVPYSEFLKKLESGQISEVSRDSYQIVFTDRSQPPIIYKTGLMEDPGLVDKMQEAGVTFTSP  0.12
4. HMGQVEVPDVVGMTQERAITTLTEAKLVAQIQLTPADVAKGLVAAQSPRAGLKIGEGSFVTIEVSTGPVI  0.0948
5. HMTPDLSEFKERLRQILPGEPIEVRTANDGIVLSGTVTSIAALDRALDLAERYAPDKVSNLLSVG  0.0882
6. HMNIEEAESILKEIKTVLTDKEYEVYTLRAKGFTYQEIASLLNTTTKSVDGALSRIKTKINNIK  0.0839
7. HMIKKLDIEPIIKSVVDDFNNIYKLKRGITISYLNDGKNKYFINGIENRIEQIIANLLDNSISFSEDNKDV  0.0041
8. HMAAENAVGARVKALREAMDLSLRDLSERSGVSPTMLSQVERGSTSPTLAVAEKIAAGLDLSLSQLLRL  -0.0179
9. HMIDQIAEQLQQRLAVDTAFATIQRDYPDVIANKDIELLTAIKVNQKIAEGASRASAMLESAKEVYETL  -0.0203
10. HMKININEASRYELMTIGGLDAGRADMLMQYRQKREISSADELKGINGFASYDTAKLQKSFEISP  -0.0475
11. HMEQLIIQEELSGKRLDQLVSLLFPSLTRAHAQKLIKEGAVLVNEKPRKPAYAVMTGELLTVELPEPE  -0.0616
12. HMSLLQTRQRHEALAALGFFKGDVAAEWSAASTEALRAAQASLGIRVDGKWGPQTEDAIGKALAERQG  -0.102
13. HMETIELSAPGGVRLDKLIADGTELSRSAAVKLIEQGNVLVNGSPAGKKDIPAAGAAVEITLPEPQ  -0.134
14. HMEDELVMERFDINELVKSVVNANELRATQKNLSITYDILDTPLYVWADEYKVEEVVTNYLS  -0.143
15. HMSASIAEGTVIMLENTTNIRSGMSEDSSKVGTAYAGEKVTVVMSYAEGWTKVKWNGETGYIKTALLQL  -0.212
16. HMTRLDLQNAFRVLPPEIQPAAVLFFLQERKQREIAKILGIGLPLVKYRIRKARELLAQFLRKEA  -0.241
17. HMEYPNEIARIFNQIPELNVSAVARTLGINKSLLSSYIYGMKKPSPERTEEIKSAIRKIGQNMLAV  -0.421
18. HMRKEPSYASDIITRLKEADLIVVEGTLYPLLTRLKKDGLLSYEWRESTQGPPRKYYALTLDGET  -0.455
19. HMSSSDYDVYNKAINLMLNLLKEPKSIEEVTASLNITKSQAITWINRALNEGKIIKTNRPVRYVVNN  -0.596
20. HMALTQEQLGQRLQDARKSVALTQQEVAEDLGLSRESLAQIEAGSRSVNSLEIVRLARLYGRSLSSILLE  -0.612
21. HMGELDFYEEMRDDYLTGKIWNVGEIVEAKGMIGEIVRKGTNYISFVTDDNKVHKAWLHEIKL  -0.634
22. HMNRIFQERVVPAELDTLRADKVAASLFSDFSRNELAHWIKMGDLSINGGVKKAKDKLFEGDVLILDVEIV  -0.798
23. HMEISLAETLRSSLHMILGWYQNTGDKKLLELIRLHLQAYVNTGNSLNPEMEEIRAALETLGEGKEAFRP  -0.999
24. HMILNPQELGERIRKLRLKRNKTQSYFADMLYISSSYLALIESGKRVPNLDLLIHIAKFTDVTLDYLVFG  -1.22
25. HMNTGLSEREHEIAQLVLQGRTYAEIGAELFISPRTAEHHIGQIRRRLAATSRSDLLAKLRVAMNTTEGAG  -1.27
26. HMKKLTNKQIIFFAEKLAHHSDFASKYSKVGESYEEFAIRLEKELNTPQKVEFYSSYLEKVGFK  -2.14
27. HMAPGSKAEIPEDLMKVINKDPKMKAFVATLNKANIMAISFRLSTAKKPETRERRFNLILETLKRGEKF  -3.18
28. HMFFDKIIVDFLADGSRIDKYISTLYPDISRTHIQRLIAEQFILVNDSVVKSNYKLSTNDVVLIHIPEA  -3.33

From the domain aggregation screens of Martell et al. (2025)
